Among the data in patent US20260258115A1 (MAPP BIOPHARMACEUTICAL, published 2026) are binding result and Kd values, retold here.

Broadly, the Kd is a measure of binding affinity in units of concentration. A high value points to weaker binding.

B1: ADI-24800 (antibody, V domains shown)
VH: EVQLLESGGGLVKPGGSLRLSCAASGFTFSSYSMNWVRQAPGKGLEWVSSISSSSSYIYYADSVKGRFTISRDNAKNSLYLQMNSLRAEDTAVYYCARVRGGYSYGYGMDVWGQGTTVTVSS
VL: QSVVTQPPSVSGAPGQRVTISCTGSSSNIGAGFDVHWYQQLPGTAPKLLIYGNSNRPSGVPDQFSGSKSGTSASLAITGLQAEDEADYYCQSYDSSLSGVVFGGGTKLTVL
notes: full-length IgG
B2: ADI-19449 (antibody, V domains shown)
VH: EVQLVESGGGLVKPGGSLRLSCAASGFTFSSYSMNWVRQAPGKGLEWVSSISSSSSYIYYADSVKGRFTISRDNAKNSLYLQMNSLRAEDTAVYYCARDSGSYLSYAFDIWGQGTMVTVSS
VL: B1 VL with Q1S, S2Y, V3E, V4L, F33Y, Q63R, V100Y, G104T, L108V
notes: full-length IgG
B3: ADI-24815 (antibody, V domains shown)
VH: EVQLVESGGGLVKPGGSLRLSCAASGFTFSSYSMNWVRQAPGKGLEWVSSISSSSSYIYYADSVKGRFTISRDNAKNSLYLQMNSLRAEDTAVYYCAREGYSSSSGYYYMDVWGKGTTVTVSS
VL: B1 VL with V4L, F33Y, Q63R, V100S, G104T, L108V
notes: full-length IgG
B4: ADI-25557 (antibody, V domains shown)
VH: B1 VH with V99G, R100Y, G102S, Y103G, G106L, Y107D, G108Y, M109F, V111Y, T117L
VL: QPGLTQPPSVSGAPGQRVTISCTGSSSNIGAGYDVHWYQQLPGTAPKLLIYGNSNRPSGVPDRFSGSKSGTSASLAITGLQAEDEADYYCQSYDSSLSGFYVFGTGTKLTVL
notes: full-length IgG
B5: ADI-19457 (antibody, V domains shown)
VH: EVQLLESGGGLVKPGGSLRLSCAASGFTFSSYSMNWVRQAPGKGLEWVSSISSSSSYIYYADSVKGRFTISRDNAKNSLYLQMNSLRAEDTAVYYCARQGYCSGGSCYHIDYWGQGTLVTVSS
VL: B1 VL with F33Y, Q63R, V100W
notes: full-length IgG
B6: ADI-25472 (antibody, V domains shown)
VH: EVQLVESGGGLVKPGGSLRLSCAASGFTFSSYSMNWVRQAPGKGLEWVSSISSSSSYIYYADSVKGRFTISRDNAKNSLYLQMNSLRAEDTAVYYCARDDSSSWYYFDYWGQGTLVTVSS
VL: B1 VL with V4L, F33Y, Q63R, V100Y, G104T, L108V
notes: full-length IgG
B7: ADI-24848 (antibody, V domains shown)
VH: B6 VH with D100T, S101V, S102V, S103A, W104G, Y105I
VL: B1 VL with V4L, F33Y, Q63R
notes: full-length IgG
B8: ADI-22771 (antibody, V domains shown)
VH: B6 VH with D100Y, S103G
VL: B1 VL with S2P, V4L, F33Y, Q63R, V100S
notes: full-length IgG; also called Ab 350
B9: ADI-19454 (antibody, V domains shown)
VH: EVQLLESGGGLVKPGGSLRLSCAASGFTFSSYSMNWVRQAPGKGLEWVSSISSSSSYIYYADSVKGRFTISRDNAKNSLYLQMNSLRAEDTAVYYCARGYCSGGSCYSHYFQHWGQGTLVTVSS
VL: QSVLTQPASVSGSPGQSITISCTGTSSDVGGYNYVSWYQQHPGKAPKLMIYDVSNRPSGVSNRFSGSKSGNTASLTISGLQAEDEADYYCSSYTSSSTVVFGGGTKVTVL
notes: full-length IgG
B10: ADI-24826 (antibody, V domains shown)
VH: B6 VH with D100R, S101G, S102Y, S103G, W104S, Y105G, Y106A, F107L
VL: B9 VL with S2P, V107L
notes: full-length IgG; also called Ab 388
B11: ADI-24840 (antibody, V domains shown)
VH: B2 VH with V5L, S100Q, G101V, S102Y, Y103S, L104Y, S105G, A107Y, I110Y, M116L
VL: QSVLAQPPSVSGAPGQRVTISCTGSSSNIGAGYDVHWYQQLPGTAPKLLIYGNSNRPSGVPDRFSGSKSGTSASLAITGLQAEDEADYYCQSYDSSLSGSHVVFGGGTKLTVL
notes: full-length IgG
B12: ADI-19430 (antibody, V domains shown)
VH: QVQLVQSGAEVKKPGSSVKVSCKASGGTFSSYTISWVRQAPGQGLEWMGRIIPILGIANYAQKFQGRVTITADKSTSTAYMELSSLRSEDTAVYYCARDGGPYYYDSSGYYRLDYWGQGTLVTVSS
VL: DIRMTQSPLSLPVTLGQPASISCRSSQSLVYSDGNTYLNWFQQRPGQSPRRLIYKVSNRDSGVPDRFSGSGSGTDFTLKISRVEAEDVGVYYCMQGTHWTYTFGQGTKLEIK
notes: full-length IgG
B13: ADI-24836 (antibody, V domains shown)
VH: EVQLLESGGGLVQPGRSLRLSCAASGFTFDDYAMHWVRQAPGKGLEWVSGISWNSGSIGYADSVKGRFTISRDNAKNSLYLQMNSLRAEDTALYYCAKDLRGGTYYYYGMDVWGQGTTVTVSS
VL: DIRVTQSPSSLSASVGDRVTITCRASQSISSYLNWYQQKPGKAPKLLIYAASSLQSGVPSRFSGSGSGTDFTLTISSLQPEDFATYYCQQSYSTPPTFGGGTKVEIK
notes: full-length IgG
B14: ADI-24811 (antibody, V domains shown)
VH: QVQLVQSGAEVKKPGASVKVSCKASGYTFTSYDINWVRQATGQGLEWMGWMNPNSGNTGYAQKFQGRVTMTRNTSISTAYMELSSLRSEDTAVYYCARGLPGQWLEYYFDYWGQGTLVTVSS
VL: SYVLTQPPSVSVAPGKTARITCGGNNIGSKSVHWYQQKPGQAPVLVIYYDSDRPSGIPERFSGSNSGNTATLTISRVEAGDEADYYCQVWDSSSDHPVFGGGTKVTVL
notes: full-length IgG
B15: ADI-19450 (antibody, V domains shown)
VH: EVQLLESGGGLVQPGGSLRLSCAASGFTFSSYWMHWVRQAPGKGLVWVSRINSDGSSTSYADSVKGRFTISRDNAKNTLYLQMNSLRAEDTAVYYCARAPISILRFLGGYFDYWGQGTLVTVSS
VL: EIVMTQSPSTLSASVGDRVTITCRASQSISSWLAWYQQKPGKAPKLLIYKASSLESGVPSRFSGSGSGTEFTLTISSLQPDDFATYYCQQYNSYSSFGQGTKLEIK
notes: full-length IgG; also called Ab 160
B16: ADI-24833 (antibody, V domains shown)
VH: QVQLVESGGGLVKPGGSLRLSCAASGFTFSSYSMNWVRQAPGKGLEWVSSISSSSSYIYYADSVKGRFTISRDNAKNSLYLQMNSLRAEDTAVYYCARALTYYYDSSGHGADYWGQGTLVTVSS
VL: QSVVTQPPSVSGAPGQRVTISCTGSSSNIGAGYDVHWYQQLPGTAPKLLIYGNSNRPSGVPDRFSGSKSGTSASLAITGLQAEDEADYYCQSYDSSLSVVFGGGTKLTVL
notes: full-length IgG
B17: ADI-24847 (antibody, V domains shown)
VH: EVQLVESGGGLVKPGGSLRLSCAASGFTFSSYSMNWVRQAPGKGLEWVSSISSSSNYIYYADSVKGRFTISRDNAKNSLYLQMNSLRAEDTAVYYCARDRIAAYTFDYWGQGTLVTVSS
VL: B16 VL with S98P, V99Y, G103T, L107V
notes: full-length IgG
B18: ADI-19465 (antibody, V domains shown)
VH: B6 VH with D99E, D100G
VL: B4 VL with P2S, G3V, L4V, F100P, Y101W, T105G
notes: full-length IgG; also called Ab 170
B19: ADI-19507 (antibody, V domains shown)
VH: EVQLVESGGGLVKPGGSLRLSCAASGFTFSSYSMNWVRQAPGKGLEWVSSISSSSSYIYYADSVKGRFTISRDNAKNSLYLQMNSLRAEDTAVYYCAREVLTGDYLGWFDPWGQGTLVTVSS
VL: QSVVTQPPSVSGAPGQRVTISCTGSSSNIGAGYDVHWYQQLPGTAPKLLIYGNSNRPSGVPDRFSGSKSGTSASLAITGLQAEDEADYYCQSYDSSHWVFGGGTKLTVL
notes: full-length IgG
B20: ADI-24820 (antibody, V domains shown)
VH: QVQLVQSGAEVKKPGSSVKVSCKASGGTFSSYTISWVRQAPGQGLEWMGRIIPILGIANYAQKFQGRVTITADKSTSTAYMELSSLRSEDTAVYYCARDPPYLRAFDIWGQGTTVTVSS
VL: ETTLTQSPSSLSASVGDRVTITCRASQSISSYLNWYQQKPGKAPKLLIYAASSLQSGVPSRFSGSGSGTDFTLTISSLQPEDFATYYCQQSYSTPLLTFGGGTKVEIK
notes: full-length IgG
B21: ADI-19460 (antibody, V domains shown)
VH: QVQLQQWGAGLLKPSETLSLTCAVYGGSFSGYYWSWIRQPPGKGLEWIGEINHSGSTNYNPSLKSRVTISVDTSKNQFSLKLSSVTAADTAVYYCARGGITAYYYYYGMDVWGQGTTVTVSS
VL: not shown
notes: full-length IgG

Residue numbers refer to the chain shown, from its start.

One experiment addresses T1, RSV postfusion F (postF), subtype A (respiratory syncytial virus subtype A, UniProt P03420 26-513).
T1 construct: also called Postfusion subtype A; F deltaFP
Briefly: BLI. (BLI is a label-free optical method that tracks binding on a fibre tip over time.)
With B1, the binding result is on record as “no binding”.

For B2, the binding result was “no binding”.

Regarding B3, the binding result is “no binding”.

For the molecule B4, the binding result is listed as “no binding”.

As for B5, the binding result is “no binding”.

As for B6, the binding result is listed as “no binding”.

On to B7, for which the binding result is listed as “no binding”.

With B8, the binding result is listed as “no binding”.

For B9, the binding result is “no binding”.

Consider B10, for which the binding result is reported as “no binding”.

With B11, the binding result is listed as “no binding”.

On to B12, for which the binding result is recorded as “no binding”.

As for B13, the binding result is “no binding”.

As to B14, the binding result is “no binding”.

Turning to B15, the binding result was “no binding”.

In the case of B16, the binding result is on record as “no binding”.

As to B17, the binding result was “no binding”.

In the case of B18, the binding result is recorded as “no binding”.

B19: the binding result is listed as “no binding”.

As for B20, the binding result is listed as “no binding”.

As to B21, the binding result is “no binding”.

The target in the next experiment is T2, RSV prefusion F (preF), subtype B (respiratory syncytial virus subtype B).
T2 construct: also called Prefusion subtype B
As to the kind of experiment: BLI, IgG.
For the molecule B1, binding was put at a Kd of 51.4 nM.

Consider B2, for which the Kd amounted to 26 nM. This Kd lies about 2-fold lower than the previous one.

In the case of B3, the dissociation constant Kd turned out to be 29.1 nM. The Kd values of the last two molecules are within 1.5-fold of each other.

As for B4, the Kd came out at 33.3 nM.

Turning to B5, the affinity, expressed as Kd, was 16.7 nM.

The molecule B6 displayed a dissociation constant Kd of 37.7 nM.

The molecule B7 returned a Kd of 35.6 nM.

In turn, B8 returned a Kd of 9.41 nM. Against the preceding molecule, the Kd is about 3.8-fold lower.

As to B9, the Kd stood at 15.7 nM.

Turning to B10, the equilibrium dissociation constant (Kd) was determined as 9.03 nM.

B11 registered a Kd of 7.8 nM.

On to B12, for which the affinity, expressed as Kd, was 16.8 nM.

For B13, the Kd turned out to be 3.44 nM.

With B14, the dissociation constant Kd amounted to 4.29 nM.

For B15, the Kd was 38.6 nM.

In turn, B16 showed a Kd of 11.4 nM.

For the molecule B17, the Kd came to 40 nM.

Regarding B18, the Kd turned out to be 19.4 nM.

The molecule B19 gave a Kd of 10.1 nM. Compared with the last molecule, the Kd is about 1.9-fold lower.

Take B20: the Kd worked out at 38.5 nM.

Molecule B21 returned a Kd of 6.01 nM.
